Patent US20210206856A1 (PANDION OPERATIONS, published 2021)
Numbering of substitutions follows the chain as printed.

T1: mouse MAdCAM expressed on cells (mouse, UniProt Q61826 22-405)
T1 construct: whole, on cells
T1 sequence (looked up): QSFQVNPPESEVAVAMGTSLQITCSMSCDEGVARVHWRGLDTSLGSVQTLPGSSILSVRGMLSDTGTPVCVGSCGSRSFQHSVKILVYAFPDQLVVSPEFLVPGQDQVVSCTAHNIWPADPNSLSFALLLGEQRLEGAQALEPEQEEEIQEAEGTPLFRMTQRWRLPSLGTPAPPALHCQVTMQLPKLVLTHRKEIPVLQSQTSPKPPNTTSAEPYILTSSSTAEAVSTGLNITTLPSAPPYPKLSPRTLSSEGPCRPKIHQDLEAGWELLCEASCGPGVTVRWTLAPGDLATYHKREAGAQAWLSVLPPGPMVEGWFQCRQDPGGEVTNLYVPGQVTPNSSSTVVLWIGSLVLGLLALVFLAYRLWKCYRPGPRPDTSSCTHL

T2: human MAdCAM expressed on cells (human, UniProt Q13477 19-382)
T2 construct: whole, on cells; also called MADCAM1
T2 sequence (looked up): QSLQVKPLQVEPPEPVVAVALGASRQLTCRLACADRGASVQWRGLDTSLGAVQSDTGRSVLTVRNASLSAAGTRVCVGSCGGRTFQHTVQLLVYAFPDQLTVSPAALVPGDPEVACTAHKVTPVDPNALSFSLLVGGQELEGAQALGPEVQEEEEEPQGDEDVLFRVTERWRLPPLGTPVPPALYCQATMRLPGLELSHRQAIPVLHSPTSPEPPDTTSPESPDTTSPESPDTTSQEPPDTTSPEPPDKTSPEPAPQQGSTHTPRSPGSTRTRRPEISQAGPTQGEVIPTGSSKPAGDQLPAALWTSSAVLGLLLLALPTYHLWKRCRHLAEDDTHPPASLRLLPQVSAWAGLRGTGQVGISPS

T3: recombinant mouse MAdCAM-1 (mouse, UniProt Q61826 22-365, limits assumed)
T3 construct: also called mMAdCAM-1; mouse MAdCAM-Fc
T3 sequence (looked up): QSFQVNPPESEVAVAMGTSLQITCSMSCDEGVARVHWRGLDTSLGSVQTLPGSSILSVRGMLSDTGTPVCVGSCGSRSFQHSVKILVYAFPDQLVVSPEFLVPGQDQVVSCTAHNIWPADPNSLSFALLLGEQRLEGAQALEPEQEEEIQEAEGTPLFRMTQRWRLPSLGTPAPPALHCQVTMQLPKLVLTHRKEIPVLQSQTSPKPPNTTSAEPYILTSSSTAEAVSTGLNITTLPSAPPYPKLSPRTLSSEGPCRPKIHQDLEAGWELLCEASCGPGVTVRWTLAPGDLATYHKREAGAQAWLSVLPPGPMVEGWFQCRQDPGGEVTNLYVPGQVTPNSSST

B1: MAdCAM Antibody Table 2 Clone 20 (antibody, human IgG1, V domains shown)
VH: EVQLLESGGGLVQPGGSLRLSCAASGFTFSDSAMHWVRQAPGKGLEWVSAISGSGSTIYYADSVKGRFTISRDNSKNTLYLQMNSLRAEDTAVYYCVSDIAVAGHWYFDLWGRGTLVTVSS
VL: DIQMTQSPSSLSASVGDRVTITCRASQSISTFLNWYQQKPGKAPKLLIYAASRLEGGVPSRFSGSGSGTDFTLTISSLQPEDFATYYCQQANSFPLTFGPGTKVDIK
B2: MAdCAM Antibody Table 2 Clone 6 (antibody, human IgG1, V domains shown)
VH: EVQLLESGGGLVQPGGSLRLSCAASGFTFNNYAFHWVRQAPGKGLEWVSRINSYGTSTTYADSVKGRFTISRDNSKNTLYLQMNSLRAEDTAVYYCAREGPVAGYWYFDLWGQGTLVTVSS
VL: DIQMTQSPSSLSASVGDRVTITCRASQIIGTNLAWYQQKPGKAPKLLIYGASSLQSGVPSRFSGSGSGTDFTLTISSLQPEDFATYYCQQSYRLPFTFGQGTKVEIK
B3: MAdCAM Antibody Table 2 Clone 24 (antibody, human IgG1, V domains shown)
VH: EVQLVESGGGLVKPGGSLRLSCAASGFTFSSYWMSWVRQAPGKGLEWVSRISSDGRITTYAAPVKGRFTISRDDSKNTLYLQMNSLKTEDTAVYYCARGTSYCTGGVCDIDYWGQGTLVTVSS
VL: B2 VL with I28S, T31R, A34N, G50S, S53N, R93S, L94I, F96L, Q100P, E105D
B4: MAdCAM Antibody Table 2 Clone 17 (antibody, human IgG1, V domains shown)
VH: QVQLVQSGAEVKKPGSSVKVSCKASGYTFTDYHIHWVRQAPGQGLEWMGGIVPRSGSTTYAQKFQGRVTITADESTSTAYMELSSLRSEDTAVYYCAKDESSGWYYFDYWGQGTLVTVSS
VL: DIVMTQSPLSLPVTPGEPASISCRSSQSLLHSNGYNYLDWYLQKPGQSPQLLIYSAYNRASGVPDRFSGSGSGTDFTLKISRVEAEDVGVYYCMQALQTPLTFGQGTKVEIK
B5: MAdCAM Antibody Table 2 Clone 46 (antibody, human IgG1, V domains shown)
VH: EVQLLESGGGLVQPGGSLRLSCAASGFSFSSYTMNWVRQAPGKGLEWVSFITSSSRTIYYADSVKGRFTISRDNSKNTLYLQMNSLRAEDTAVYYCARDRRGDYGDSWYFDLWGRGTLVTVSS
VL: EIVMTQSPATLSVSPGERATLSCRASQSVRNYLAWYQQKPGQAPRLLIYGASTRATGIPARFSGSGSGTEFTLTISSLQSEDFAVYYCQQYGSSPLTFGGGTKVEIK
B6: MAdCAM Antibody Table 2 Clone 14 (antibody, human IgG1, V domains shown)
VH: QVQLVQSGAEVKKPGSSVKVSCKASGYTFTNYYMHWVRQAPGQGLEWMGGIIPIVDGVKYAQKFQGRVTITADESTSTAYMELSSLRSEDTAVYYCAKGQFTGNYYYGMDYWGQGTLVTVSS
VL: DIQMTQSPSSLSASVGDRVTITCQANQDISNYLNWYQQKPGKAPKLLIYRASKLEAGVPSRFSGSGSGTDFTLTISSLQPEDFATYYCQQSSEIPYSFGQGTKVEIK
B7: MAdCAM Antibody Table 2 Clone 22 (antibody, human IgG1, V domains shown)
VH: EVQLLESGGGLVQPGGSLRLSCAASGFTFDDYAMHWVRQAPGKGLEWVSGISWNSGSIGYADSVKGRFTISRDNSKNTLYLQMNSLRAEDTAVYYCAKDIVAAGHYYYGMDVWGQGTTVTVSS
VL: B6 VL with N26S, R50D, K53N, A56T, S92Y, E93S, I94T, Y96L, S97T, Q100G
B8: MAdCAM Antibody Table 2 Clone 23 (antibody, human IgG1, V domains shown)
VH: EVQLLESGGGLVQPGGSLRLSCAASGFTFDDYAMHWVRQAPGKGLEWVSYIDTSSSHLYYADSVKGRFTISRDNSKNTLYLQMNSLRAEDTAVYYCARDEAAAGYYGMDVWGQGTTVTVSS
VL: DIQMTQSPSSLSASVGDRVTITCQAGQDISNYLNWYQQKPGKAPKLLIYDASNLETGVPSRFSGSGSGTDFTLTISSLQPEDFATYYCQQTYSTPITFGQGTKLEIK
B9: MAdCAM Antibody Table 2 Clone 28 (antibody, human IgG1, V domains shown)
VH: EVQLLESGGGLVQPGGSLRLSCAASGFTFSSYAMSWVRQAPGKGLEWVSYISSSSTYTNYADSVKGRFTISRDNSKNTLYLQMNSLRAEDTAVYYCARANSSSWYDWYFDLWGQGTLVTVSS
VL: not shown
B10: MAdCAM Antibody Table 2 Clone 29 (antibody, human IgG1, V domains shown)
VH: B9 VH with A33Q
VL: not shown
B11: MAdCAM Antibody Table 1 Clone 11 (scFv)
scFv: QVQLVQSGAEVKKPGASVKVSCKASGYTFTTYYMHWVRQAPGQGLEWMGGFDPEDGETIYAQKFQGRVTMTRDTSTSTVYMELSSLRSEDTAVYYCARHAVAGAVGAGYYYYGMDVWGQGTMVTVSSGGGGSGGGGSGGGGSGGGGSDIQMTQSPSSLSASVGDRVTITCRASESISNWLAWYQQKPGKAPKLLIYAASTLQSGVPSRFSGSGSGTDFTLTISSLQPEDFATYYCQQSYSVPFTFGPGTKVDIK
B12: MAdCAM Antibody Table 1 Clone 7 (scFv)
scFv: QVQLVQSGAEVKKPGASVKVSCKASGYTFTGYHIHWVRQAPGQGLEWMGIINPSGGSTIYAQKFQGRVTMTRDTSTSTVYMELSSLRSEDTAVYYCAKDWSSWYLGPFDYWGQGTLVTVSSGGGGSGGGGSGGGGSGGGGSDIQMTQSPSSLSASVGDRVTITCRASQNISSSLNWYQQKPGKAPKLLIYAASSLQSGVPSRFSGSGSGTDFTLTISSLQPEDFATYYCQQSYTTPYTFGQGTKVEIK
B13: MAdCAM Antibody Table 1 Clone 5 (scFv)
scFv: EVQLLESGGGLVQPGGSLRLSCAASGFTFSSYWMHWVRQAPGKGLEWVSSISPGGSNIDYADSVKGRFTISRDNSKNTLYLQMNSLRAEDTAVYYCAREVQLSHYDYWGQGTLVTVSSGGGGSGGGGSGGGGSGGGGSDIQMTQSPSSLSASVGDRVTITCRASQGISNSLAWYQQKPGKAPKLLIYGASSLQSGVPSRFSGSGSGTDFTLTISSLQPEDFATYYCQQANSFPFTFGQGTKVEIK
B14: MAdCAM Antibody Table 1 Clone 2 (scFv)
scFv: QVQLVQSGAEVKKPGASVKVSCKASGYPFIGYYLHWVRQAPGQGLEWMGIINPSGGSTSYAQKFQGRVTMTRDTSTSTVYMELSSLRSEDTAVYYCAREGRLSYGMDAWGQGTLVTVSSGGGGSGGGGSGGGGSGGGGSDIQMTQSPSSLSASVGDRVTITCRASQSISSYLAWYQQKPGKAPKLLIYGASTLESGVPSRFSGSGSGTDFTLTISSLQPEDFATYYCQQTWGPPFTFGQGTKLEIK
B15: MAdCAM Antibody Table 1 Clone 3 (scFv)
scFv: B14 scFv with Y32Q
B16: MAdCAM Antibody Table 1 Clone 4 (scFv)
scFv: QVQLVQSGAEVKKPGASVKVSCKASGGTFSSYAISWVRQAPGQGLEWMGSINPSGDTTSYAQKFQGRVTMTRDTSTSTVYMELSSLRSEDTAVYYCAKDKAQWLVGYFDYWGQGTLVTVSSGGGGSGGGGSGGGGSGGGGSDIQMTQSPSSLSASVGDRVTITCQASQDISNSLNWYQQKPGKAPKLLIYAASSLQSGVPSRFSGSGSGTDFTLTISSLQPEDFATYYCQQSYSSVITFGQGTKVEIK

Each binder was assayed against T1, mouse MAdCAM expressed on cells (assay: cell binding).

Row | binding result | Binder
1 | no binding | B1
2 | no binding | B2
3 | no binding | B3
4 | no binding | B4
5 | no binding | B5
6 | no binding | B6
7 | no binding | B7
8 | no binding | B8
9 | no binding | B9
10 | no binding | B10

These binders were tested against T2, human MAdCAM expressed on cells (assay: cell binding).

Row | binding result | Binder
11 | binds | B1
12 | binds | B2
13 | binds | B3
14 | binds | B4
15 | binds | B5
16 | binds | B7
17 | binds | B8
18 | binds | B10

Each binder was assayed against T3, recombinant mouse MAdCAM-1 (assay: Octet).

Row | binding result | Binder
19 | no binding | B1
20 | no binding | B2
21 | no binding | B3
22 | no binding | B4
23 | no binding | B5
24 | no binding | B6
25 | no binding | B7
26 | no binding | B8
27 | no binding | B9
28 | no binding | B10

Target: T1, mouse MAdCAM expressed on cells
Assay: cell binding
Remark: another data set of the same source

Row | binding result | Binder
29 | no binding | B11
30 | binds | B12
31 | binds | B13
32 | binds | B14
33 | binds | B15
34 | binds | B16

Target: T2, human MAdCAM expressed on cells
Assay: cell binding
Remark: another data set of the same source

Row | binding result | Binder
35 | binds | B11
36 | binds | B12
37 | binds | B13
38 | binds | B14
39 | binds | B15
40 | binds | B16
